A short description of this data set: soluble on expression in E. coli; label from the status in PepcDB or PDB records.
“MPLEASELKPTAGPLEASELKPTAGPLEASELKPTAGPLEASELKPTAGPLEASELKPTAGPLEASELKPTAGPLEASELKPTAGMYAFKAVKQYFYPSDNLKVLMHKFTDMVNFTINIMIEKNLTSRNSVSNEVYHKLKEYEIPSYYYIEAINKAVALVKTYRKRLKKKQKATVPHVEKPMLSTYYGFKIVGGNLMIPIANREYESIPLNAYVRDATSMVKVHSFALSAYTLSLTIGRDVDAIECTTTVGVDRNLRNATVGNEFHHEIYDLSNVVEIKQRYRKKESHFHRNDRRIREKILSKYGKRERNRVKQIMHETSKAIVSNASTRKEMIVLENIRGINKITKKGDGKGKDYRFLLKNAFPYGMLASQVMYKASWEGLPVIELTRKETRNTSRMCSVCGSLTRIEHGRILKCDSCGLEIDRDVNACINIAFRYRTCLKRSHKGLPGEAVKQSKDVEQMAGSQISTDILEHHHHHH”: the “soluble on expression in E. coli” value is on record as “soluble”.
The same measure for “MGSDKIHHHHHHMEKTILVHAAACAPAESCGYVVNTSAGERYFPCQNLSAEPTMYFRMAPEDYLRAQAAGDVVALVHSHPDGLPFLSDVDRRLQVQSGLPWWLVCHDRIYTFRCVPFLTGRVFEHGVTDCYTLFRDAYHLAGIEMPDFSRGEDWWKNGENLYLDNLEATGFYRVSGEEAQSGDILICCFGSSVANHAAIYCGNGELLHHIPDQLSKRERYTDKWQRRTHSIWRHRAWHESAFTGIYNDLAAALASV”: “not soluble”; for “MKVIAFVGKHNVGKTTLIERLIPKLKEKGYRVCYLKHDPKGHGVTDKEGSDTHRISKLVEKLALLSPNRVTYWEWGEFKPLEIVKRFFSDCDIVILEGFKWEEEIPKISVGKVDAKNVILTVDRETPLEDIIKVIESLEDMV”: “soluble”; for “MDRRQRFEKYDWLISKTQSILKNYECPESCNASCCRHHIIDFRRKEYEKILKNVDKESANILKSNAVKSELEGCYKAIVGQCPLLTNSKCRIYNNRPEACRNFPFVIFPDPEAGFGLTLLLCPISVNIIQDYAQWYKSVNLTMYNQLTAVYEQYKNIGENNDFCIQMKEQNLDSFIEFLEKKLEHHHHHH”: “not soluble”.
As for “MCMSVFKRLRDLTMSNVYSLIEKAEDPVKMTDQYLRDMQADVQEAEKSVAAQIALEKKFKILFEEQEALVKKREEQAHMAVQASNLDLARRALEEKQNAEQKMNEYKASYEQNKAAADNLRLKLEEMRKQLTELKNKRETLVARVNAAKAQKNINQAMSGFDSNSAKAGLSRMEEKALQLEAEAEASGEVYKKEKSLDDEFASLNKNSAVDDELARIMKQYEKMAGDPLEHHHHHH”, the “soluble on expression in E. coli” value is recorded as “not soluble”.
“MIEIKQVKTQDEVNYTFVEKLMHTAFPQEERRDTVQQREYSDNNPRFCNNIILENGNSIGMISYWTMGDFYYIEHFAIDPSLRNGGYGKRVLEMIKKQLKGPIVLEVEEPNDEMSTRRIHFYKRLEFTLHKKPYIQPPYRKGDSGLPMLLMTYGDIDMESDFEKVKKTLYKEVYGQEI”: the “soluble on expression in E. coli” value is reported as “not soluble”.
Next, “MGSDKIHHHHHHACSDDDKVSISTVGITTTVDTTIEGLQLTGGTYTFENVNTSVKTDITYPAQSIELADGLYNVTFIGKGTYSQNGTPVEVDVQGVQQNVAVSGGSYKLELKVHVLNTGDPDFVIAEIFIPGTYNEAGKQYNGDQYIRIYNNSDKVLYADGLIFMESQFQTTQKYQSVDPDIMDEAIAVGSVVAVPGSGTDYPVQPGESFILCDNAINHKEANPNSIDLSKANFEWYIESKQDVDNPAVPNLDVYYCYSKTIWVLNKQGNRAYAIGRLPKSMTKEKYISDYAYNYTYIMQNGTASKPQSKYKFPNEWVIDAVNVGASNEWQWNVTSTGLDMGHTYIGMNNTVAENIGKCVMRKAAYKDGDREVLQDTNNSTVDFTPAATPSLFNK”: “not soluble”.
With “MNLDELLLLIEKNRSQLSKIDDDFYEKLRERIAELEEMKSSAGESDFFRYEDEIRTLKRLQRKIFELRTGKIISAAWAEVCGQQFSSDVENMCSDERVFFKKLIDIIKEFKRSILEGGKRKISDRVLVRIKKDVEIQGADGKTYKLRREDVVTLPQLNADALIKGGIAERIEVKEDEVSQEGLEHHHHHH”, the “soluble on expression in E. coli” value is given as “soluble”.
Next, “SIKDVHRCFVIACIPGKKPYTLALSDFISATAACFKSGIPLKTLKESLENMKETYFRPLKVEEFELLRTWLTLVYKTLKEVLFPLTENKRGICDTDDSIYDEFVKSIVTAIREGYSMEKIRLEQVVTNTKTQPRTEFESALLSQSTRIVVQTVQIAKEFSSEQ”: “soluble”.
The same measure for “SLDIRALGYFVAQTDAPQEWQHYAEQVLGMMTAPTDDGGFYIKMDERPYRMLVIPGADKRYFASGWELTGAKAYNNAKQTLLDKGIAFEEANKALCEQRRVQNILIVNDPAGNRHELYWGHVSDCQPFTSPQGVPAFITGDMGLGHTVLPAPNFDETFAFLTDVLGFELSDLFNFKPAPEADPIRIYFMHCGNARHHSLAICEFPVPSGCVHAMVEVENMTEVGRAHDRQQQHQVQLSATLGQHLNDKMTSFYMKTPSGFDLEYGFGGLQVENWEEHCAFEFSRVSLWGHDFSVGEKEG”: “not soluble”.
The same measure for “MISKRNTPQRRHAILALLSEQGEVSVDALAKRFSTSEVTIRKDLAAMESHGLLLRRYGGAVPMPQELIGEAAQPVSPYKQAIGRAAAARIREHARIIIDSGSTTAAMIPELGHKPGLVVMTNSLNVVNALRELEHEPVLLMTGGTWDPHSESFQGQVAEQVLRSYDFDQLFIGADGIDLERGTTTFNELLGLSRVMAEVAREVIVMAEADKVGRRIPNQELPWSSIHTLITDERLESSAREQITARGVTLICTPVEALEHHHHHH”: “not soluble”.
As to “MSNVQTSAEREIVDLSHLAFDCGMLGRLKTVSWTPVIAGDSFELDAVGALRLSPLRRGLAIDSKVDFFTFYIPHRHVYGDQWIQFMRDGVNAQPLPSVTCNRYPDHAGYVGTIVPANNRIPKFLHQSYLNIYNNYFRAPWMPERTEANPSNLNEDDARYGFRCCHLKNIWSAPLPPETKLAEEMGIESNSIDIMGLQAAYAQLHTEQERTYFMQRYRDVISSFGGSTSYDADNRPLLVMHTDFWASGYDVDGTDQSSLGQFSGRVQQTFKHSVPRFFVPEHGVMMTLALIRFPPISPLEHHYLAGKSQLTYTDLAGDPALIGNLPPREISYRDLFRDGRSGIKIKVAESIWYRTHPDYVNFKYHDLHGFPFLDDAPGTSTGDNLQEAILVRHQDYDACFQSQQLLQWNKQARYNVSVYRHMPTVRDSIMTS”, the “soluble on expression in E. coli” value was “soluble”.
“MAHHHHHHMAQCLTWQVLDQRQTGECLDAVDLEALRAVIKRIDDDRDGALLHSSERTATQVNVLLDLYGHLVLFAKASQFSPFKTSTLFGIVHRVHEASIADRLSRFHSYDLLRELVVRHSVHRPPYSTMVFSVREVQDIDTYMMSTYYRHYKMYVYCFVPREVASLRTVMLNDTAEAPPAQLPPLSAAIREDAWKEKMQEKVRTLEEAEMEEQLIVSDAVSEAQKNAATLDNSRFMAGISAQLEAIRDAVSTKSSERLDLIEEKLTAIEAKVNEAQSSGNRSRQGSRGSSKRK”: the “soluble on expression in E. coli” value is given as “soluble”.
Next, “MSSNQYIQSLELTNFTVLPNDTFEFSENLNVIVAENGCGKTHLLKILYSLLEVTSNTKNRLLKTELQKSFADKLLNVFRPDSLGRLSKRLQGRGRTEIVLKLQNGTTHSSLNFSSNSSSQVNVQSIGLKENEYTPTPIFLPSRELITLCPWFTSLYQNQSIPFEETWFDTCMQLNHPLAKGPRETKIRELLEPIENAMGGKVSEEQGRFYLSLTNTGGKIEAPLVAEGLRKFVMIARLIATGALLDKGYLFWDEPEANLNPKLIKVAARIIWSLSQQGIQVFIATHSLFLLRELELLKLENNTDLPVRFFSLIASDDGTKVEQGNSINDLNTLILLDENIMQADRYLNI”: “not soluble”; “MGSDKIHHHHHHMFISDLHIGDGSAKDDFFFDKELVNFIEDMSQTEDVELFVVGDGFEILESRTVKEIGLVSFEEVVETLDETVIDEIEKKHSEVFETLKKFSRRHRVYYVVGNHDYHILKNKKLQNALKNRFEKFEILPYYYDPHSKLLVLHGNQFDVINRFTVDRKTKKVIPPLGDYIARYMMINFDSQVVNFAPEDVIRDYDNVRPLLDVFHWFDYVTEIYDLSVDLVELWLKSFLSMLKTREARKWMKNNFPRTHWLSKVFVNRFGGVELGKVLVRSIYTLRKLRRVDYLQKWAKSILKGNLRWKEFMTGYSGDLHEVEEVDILVMGHVHHFAYRIVPTTQGKKLYVNCGSWRPVLEKLGIRKRHGFHRKAELPKIIMDFSGKNVEVKASITNVLGKIQGGDL”: “not soluble”; “MILTTTHEIEGRRIERYLGIVFGEAIVGANVLRDLLAQIRDIVGGRSGAYEAELRRARETALAEMAEAARRLGADAVVGVDLDYEVLGSGNSMLMVTASGTAVKLAP”: “soluble”.
Next, “MGSDKIHHHHHHMGSTFMGIETGRRALTTNQWALQSTGNNIANAGTAGFSRQRLVMATTEQLSMAIGTGKMGQIGTGVRGEILERVRDVMLDKQYRDEATKTAYYGTKEAAFGRMEDIINEPSDTGLAKAFDGFWESLQTLSTNPQDSGARSVVRQKAETLTQTFNYMSKSLSQVKEDLKSEIDVSTKKVNDLFKKIHNINAEIHTVEPLGVLPNALYDERDRYMDELAQYVDFEKVSVDAEAITQGKLGNATKTAEGRIDILVKLPNGNKLRAVDSDVAQAGILSFTTNDKGLYTGFETNSQTISFDAAGGGFANGRIAGLLEMYGQIKNGQPTGEFVKMQSNLDEMATTFATAFNAAHAANFKKDKTNGTDQFFVATSGSISAATIAVGQDIKGSLDNIATSTDGNIGDSAGALKLAQMKTTSLLFATSVTTTTIGSFYQNVIGDMGVATDQVGRLGQSSAVLMDSAEQRRMSVSAVSIDEEMTMMIQYQHAYNAAARNITTVDEMLDKIINGMGIVGR”: “not soluble”.
Next, “MVYVKSLLRRADNFMYIVKKSSEARAALLVDLVNEEDYKELADKENIDITAVLTTHHHYDHCGGNEGFRRQFPNVMILGGDSRIPAMDRHVKHGDMAEFAGLQIKCLSTPCHTSGHICYHITNPAADSTSPGVVFTGDTLFIAGCGRFFEGTAPQMDVALNEILKNLPVETQIFPGHEYTVANLKFACHVEPGNEKAAQKLEWAQRQIEQGGFTVPSTVAEEKATNPFMRVRESEEIQKSIGTCDAVVGMAKLREMKNKF”: “not soluble”; “MAHHHHHHMQRYLQRTVPVAPLRLSISGNSSTEGVHADAAPLLESRFLRRLRAEVDREARAEQLCKGTAARAIQQAFRRWAQTRQLQHRHLSIHGIVRPRCEFDPIRAAELDAALCSIQASLRVWASSRLVEARRLKLLQQITSSVLDPACRTTLRCAASIRHINDRQLREVLCRQEAVERRDLLRRHFVFLVCCHQAFFNDPRMWDAGMSIRRIPLYTHHGLLSAETLPVIWGTRTSSSTLNSATEDSVALRGDAVASPLPPESSSFSVTATVDGCIKGWGSPAEPGSSLLEAVGSDWLVGKEEDGGGFDIDAALRLGEYRLLFSPEEWRLLKKLKASSPHPASPLLSSGADGRRAARDAAGLPEAEAGALAAPRGQLQMAPTEAAAKSACSLSYAKAFASALTFLRQPRMVDPSVRCTVQRLNDIRSSTLEMQQELRVHGYLFAAQVAPLLILGFHYQGLARGDADLSCFTTTSAMKTCRPLVAGRVACAATELRRCLIGAVHYSGGAAESVLPVALEEHKCSGKAAARTLSQRLPPAGVSRSMLLPPRAAPTAGLMRDGFANPGTEALYHAPAKTTRRAGGADPRCGSSHTASRHGSAIRVALAAEWSRRLASSADEVGPYWCEFLSSTGLDGLVTAAGRRGETPGEADAAYQTRASLPSPPLPTRVRRGLESHLVHGGSSYLLQDFMPSLMRRRAHSRAGPQPLDAATGSVVVAVACAGASPSTSVSTSTCGMVHAGEWWDAVERLLLREYTNRRELLTNEAVQRSSIDILRCTAHPSADESVAGV”: “not soluble”.
